According to paper PMC3383726:

Molecular target: chimera of the human sst5 receptor with the carboxyl-terminal tail of the human sst2 receptor (hsst5-sst2CT) (human)
Experiment: radioligand binding; competition against 0.05 nM [125I-Tyr11]-SS-14 on membrane preparations (30 µg protein) of stably transfected HEK293 cells; competitor 10^-12 to 10^-6 M; 10 mM HEPES, 5 mM MgCl2, 5 µg/ml bacitracin, pH 7.5; 45 min, room temperature; vacuum filtration

Somatostatin (SS-14) (from UniProt P61278 103-116) (peptide)
IC50: 30.3 nM
